Laboratory results published in paper PMC8041772, “Activation mechanism of a small prototypic Rec-GGDEF diguanylate cyclase” (Nature Communications, 2021).
Values belong to the compound of their own block, whether it stands above or below them.

Columns and labels:
DgcR = target: T1, DgcR (Leptospira biflexa, UniProt B0SUI1); assay: crystal structure at […] Å (DgcR_inh); product-inhibition Ki from progress curves (oIEC), about […] for BeF3-activated and about […] for native enzyme; type: biochemical
T1 construct: gene LEPBI_p0053; full-length (298 residues), dimer
T1 sequence (B0SUI1 1-298): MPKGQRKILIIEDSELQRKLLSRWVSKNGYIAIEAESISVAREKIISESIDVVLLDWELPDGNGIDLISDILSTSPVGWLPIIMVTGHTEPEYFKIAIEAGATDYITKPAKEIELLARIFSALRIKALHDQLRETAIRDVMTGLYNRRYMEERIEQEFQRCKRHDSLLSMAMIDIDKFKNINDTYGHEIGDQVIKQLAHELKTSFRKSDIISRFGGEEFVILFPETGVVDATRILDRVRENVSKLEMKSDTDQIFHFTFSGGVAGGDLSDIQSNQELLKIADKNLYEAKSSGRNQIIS

[1] = target: DgcR (LEPBI_RS18680, diguanylate cyclase controlled by Rec) from Leptospira biflexa, wild type, native (Leptospira biflexa); assay: SEC-MALS; in-line multi-angle light scattering and refractive index; 100 µL loaded at 0.5 to 10 mg/mL with various ligands; 20 mM Tris pH 8.0, 500 mM NaCl (or 20 mM NaCl), 5 mM MgCl2, 1 mM DTT; substrate analogue, product or lower salt did not change the quaternary state
[2] = target: DgcR wild type, BeF3- modified (pseudo-phosphorylated, activated) (Leptospira biflexa); assay: as above

Ki (DgcR): ~150 nM
Compound: Nc1nc2c(ncn2[C@@H]2O[C@@H]3CO[P@](=O)(O)O[C@H]4[C@@H](O)[C@H](n5cnc6c(=O)[nH]c(N)nc65)O[C@@H]4CO[P@](=O)(O)O[C@H]3[C@H]2O)c(=O)[nH]1 [c-di-GMP]

stoichiometry N [1]: 2
Compound: DgcR (LEPBI_RS18680, diguanylate cyclase controlled by Rec) from Leptospira biflexa, wild type, native (enzyme)

stoichiometry N [2]: 2
Compound: DgcR wild type, BeF3- modified (pseudo-phosphorylated, activated) (enzyme)
